{
  "source": "patent US10227575B2",
  "about": "“Multi-domain enzymes having cutinase activity, compositions comprising same and uses thereof” (OZYMES, priority 2015, dated 2019)",
  "molecules": {"B1": {"name": "KrCUT: mature Kineococcus radiotolerans cutinase, amino acids 34-294 of SEQ ID NO: 1; SEQ ID NO: 6 (protein)", "chain": "ATCSDVDVVFARGTGETPGLGVVGGPFVRSLTGELSDRTVTSHAVDYAASSSQASAGPGATAMSAHVREVAAACPSTRFVLGGYSQGATVTDIALGIRTGTTTGTPVPAELAGRVAAVVVFGNPLGLSGRTIATASSTYGPKSKDYCNSSDSVCGSAPKTGTGGHLSYASNGSTTDGARFAAGLVRAAGTPTTPTPTPTPTPVPTTCVRDSTRDHVAADRAVSLYGRAYARGSRDSLGATSSYNVVSLQQVEGGWRLVTAC", "modifications": "Kineococcus radiotolerans; (1)..(261) KrCUT (lacking residues 1-33 of ssKrCUT)"}},
  "key": {"[1]": {"assay": "KrCUT activity in the presence of chelating agents", "format": "biochemical"}, "[2]": {"method": "Molar masses of the samples were determined with universal calibration with the refractive index detector and the viscosity detector. The universal calibration curve was based on polystyrene standards [Polymer Laboratories (Amherst, Mass.) and Aldrich (Oakville, ON)] using the molar masses determined by the manufacturer and the intrinsic viscosities measured by the apparatus. The software OmniSEC™ software from Viscotek was used for data collection and calibration. Separation in THF was performed by injecting 100 μL of 1.5-2 mg/mL solutions of standards or samples into thermostatically controlled SuperRes™ columns [35° C.; PAS-102, PAS102.5, PAS-103L, each 300 mm×8 mm; PolyAnalytik (London, ON)]. The flow rate was 1 mL/min.\nAlternatively, a thin film was prepared from 1 g of commercial available PCL pellets and used for degradation. The polymer was dissolved in dichloromethane in a 1 L beaker. The solvent was allowed to evaporate overnight and the resulting film dried to constant weight under reduced pressure. Prior to enzymatic treatment the film was cut into pieces (20 mg) of approximately 1.5 cm×1.5 cm and thickness of approximately 0.1 mm. The reaction mixture was monitored by HPLC and SEC as described above.\nTo quantify this further, pellets of polycaprolactone (PCL) as well as films of PCL were incubated with KrCUT at various enzyme concentrations (1.25 μM, 2.5 μM, and 5 μM representing 4.7, 9.5 and 19 enzyme Units) at 37° C. The degradation of the polymer was followed over time by analyzing aliquots of the reaction mixture by HPLC for the detection of the released monomer (6-hydroxyhexanoic acid) and characterization of the remaining polymer by SEC after lypholization of the sample."}, "[3]": {"assay": "Pectin release from hemp fibre (TBA method)", "method": "Hemp fibres (German variety, 150 mg) were treated with either pectate lyase (PL, 10 U) or PL combined with various amounts of KrCUT (40, 60 and 100 U). Control experiments containing no enzyme or 100 U of KrCUT were conducted for comparison. After incubation at 37° C., aliquots of the reaction mixture were taken at 1 h 30 min and 3 h, and analyzed for pectin degradation products using the thio-barbituric acid (TBA) method (52) which detects released unsaturated compounds spectrophotometrically at 550 nm.\nThe quantity of pectin released from natural hemp fibre by KrCUT in conjunction with the action of a thermostable pectate lyase was assessed as described in Example 1, section 1.13. The thermostable pectate lyase alone released a certain amount of pectin as expected of the pectinolytic activity (Xiao et al., 2008)."}},
  "note": "Like-named read-outs stand apart in the source and are kept apart here.",
  "data": [
    {"molecule": "B1", "values": [
      {"measurement": "effect of EDTA on KrCUT activity", "setting": "[1]; EDTA 10% w/v", "result": "does not inhibit"},
      {"measurement": "activity retained in the presence of GLDA", "setting": "[1]; GLDA 5% w/v", "result": 100, "unit": "%"},
      {"measurement": "polymer peak in SEC", "setting": "[2]; 2.5-5 μM, 24 hours", "result": "complete disappearance of the polymer"},
      {"measurement": "6-hydroxy hexanoic acid from PCL pellets, % of the maximum yield", "setting": "[2]; PCL pellets, 2.5 μM protein, 24 hours", "result": 18, "unit": "%"},
      {"measurement": "degradation of thin films of PCL", "setting": "[2]; enzyme 1.25 μM, 24 hours", "result": "nearly completely degraded"},
      {"measurement": "acidic monomers released from PCL", "setting": "[2]; enzyme 2.5 or 5 μM, 6 hours, 37° C.", "result": "~90", "unit": "%"},
      {"measurement": "Mn of remaining PCL", "setting": "[2]; time 0 h", "result": 44000, "unit": "Daltons"},
      {"measurement": "Mw of remaining PCL", "setting": "[2]; time 0 h", "result": 63300, "unit": "Daltons"},
      {"measurement": "PCL (SEC)", "setting": "[2]; time 0 h", "result": 100, "unit": "%"},
      {"measurement": "acid (HPLC)", "setting": "[2]; time 0 h", "result": 0, "unit": "%"},
      {"measurement": "Mn of remaining PCL", "setting": "[2]; time 1 h", "result": 53800, "unit": "Daltons"},
      {"measurement": "Mw of remaining PCL", "setting": "[2]; time 1 h", "result": 64400, "unit": "Daltons"},
      {"measurement": "PCL (SEC)", "setting": "[2]; time 1 h", "result": 61, "unit": "%"},
      {"measurement": "acid (HPLC)", "setting": "[2]; time 1 h", "result": 28, "unit": "%"},
      {"measurement": "Mn of remaining PCL", "setting": "[2]; time 3 h", "result": 55000, "unit": "Daltons"},
      {"measurement": "Mw of remaining PCL", "setting": "[2]; time 3 h", "result": 66600, "unit": "Daltons"},
      {"measurement": "PCL (SEC)", "setting": "[2]; time 3 h", "result": 27, "unit": "%"},
      {"measurement": "acid (HPLC)", "setting": "[2]; time 3 h", "result": 60, "unit": "%"},
      {"measurement": "Mn of remaining PCL", "setting": "[2]; time 6 h", "result": 58200, "unit": "Daltons"},
      {"measurement": "Mw of remaining PCL", "setting": "[2]; time 6 h", "result": 68100, "unit": "Daltons"},
      {"measurement": "PCL (SEC)", "setting": "[2]; time 6 h", "result": 12, "unit": "%"},
      {"measurement": "acid (HPLC)", "setting": "[2]; time 6 h", "result": 85, "unit": "%"},
      {"measurement": "Mn of remaining PCL", "setting": "[2]; time 24 h", "result": 69500, "unit": "Daltons"},
      {"measurement": "Mw of remaining PCL", "setting": "[2]; time 24 h", "result": 74000, "unit": "Daltons"},
      {"measurement": "PCL (SEC)", "setting": "[2]; time 24 h", "result": 0.3, "unit": "%"},
      {"measurement": "acid (HPLC)", "setting": "[2]; time 24 h", "result": 100, "unit": "%"},
      {"measurement": "pectin released from hemp fibre", "setting": "[3]; highest concentration, absence of pectate lyase", "result": "negligible amounts"},
      {"measurement": "pectin degradation products detected", "setting": "[3]; increasing amount of cutinase, fixed pectate lyase", "result": "higher percentage of pectin degradation products"}
    ]}
  ]
}
